Assay results as given in patent US20260001928A1 (CORTERIA PHARMACEUTICALS, priority 2022, published 2026).
*1 amine or outer side, *2 acyl side, *3 side chain or, on linkers, in order; H or OH if unused. Where no end group is shown, it is not given here. Side-chain parts run from the residue outwards. [ ]: non-standard residue; d: D form. The star is where a group is joined. C20 diacid = O=C(O)CCCCCCCCCCCCCCCCCCC(=O)*; γGlu = O=C(O)[C@H](CCC(=O)[*:2])N[*:1]; NMeI = CC[C@H](C)[C@H](NC)C(=O)O; AEEA = NCCOCCOCC(=O)O; Aib = CC(C)(N)C(=O)O

B1: SEQ ID NO 239 (peptide)
peptide: [NMeI]VLSLD[dV]PIKLK([AEEA-AEEA-γGlu-C20 diacid])KILLEQEKQK[Aib]QREQAETN[Aib]QILAQV-NH2
modifications: N-terminus assumed
SMILES: CC[C@H](C)[C@H](NC)C(=O)N[C@H](C(=O)N[C@@H](CC(C)C)C(=O)N[C@@H](CO)C(=O)N[C@@H](CC(C)C)C(=O)N[C@@H](CC(=O)O)C(=O)N[C@@H](C(=O)N1CCC[C@H]1C(=O)N[C@H](C(=O)N[C@@H](CCCCN)C(=O)N[C@@H](CC(C)C)C(=O)N[C@@H](CCCCNC(=O)COCCOCCNC(=O)COCCOCCNC(=O)CC[C@H](NC(=O)CCCCCCCCCCCCCCCCCCC(=O)O)C(=O)O)C(=O)N[C@@H](CCCCN)C(=O)N[C@H](C(=O)N[C@@H](CC(C)C)C(=O)N[C@@H](CC(C)C)C(=O)N[C@@H](CCC(=O)O)C(=O)N[C@@H](CCC(N)=O)C(=O)N[C@@H](CCC(=O)O)C(=O)N[C@@H](CCCCN)C(=O)N[C@@H](CCC(N)=O)C(=O)N[C@@H](CCCCN)C(=O)NC(C)(C)C(=O)N[C@@H](CCC(N)=O)C(=O)N[C@@H](CCCNC(=N)N)C(=O)N[C@@H](CCC(=O)O)C(=O)N[C@@H](CCC(N)=O)C(=O)N[C@@H](C)C(=O)N[C@@H](CCC(=O)O)C(=O)N[C@H](C(=O)N[C@@H](CC(N)=O)C(=O)NC(C)(C)C(=O)N[C@@H](CCC(N)=O)C(=O)N[C@H](C(=O)N[C@@H](CC(C)C)C(=O)N[C@@H](C)C(=O)N[C@@H](CCC(N)=O)C(=O)N[C@H](C(N)=O)C(C)C)[C@@H](C)CC)[C@@H](C)O)[C@@H](C)CC)[C@@H](C)CC)C(C)C)C(C)C
B2: SEQ ID NO 237 (peptide)
peptide: [NMeI]VLSLD[dV]PIKLK([AEEA-AEEA-γGlu-C20 diacid])KILLEQEKQKEQREQAETN[Aib]QILAQV-NH2
modifications: N-terminus assumed
SMILES: CC[C@H](C)[C@H](NC)C(=O)N[C@H](C(=O)N[C@@H](CC(C)C)C(=O)N[C@@H](CO)C(=O)N[C@@H](CC(C)C)C(=O)N[C@@H](CC(=O)O)C(=O)N[C@@H](C(=O)N1CCC[C@H]1C(=O)N[C@H](C(=O)N[C@@H](CCCCN)C(=O)N[C@@H](CC(C)C)C(=O)N[C@@H](CCCCNC(=O)COCCOCCNC(=O)COCCOCCNC(=O)CC[C@H](NC(=O)CCCCCCCCCCCCCCCCCCC(=O)O)C(=O)O)C(=O)N[C@@H](CCCCN)C(=O)N[C@H](C(=O)N[C@@H](CC(C)C)C(=O)N[C@@H](CC(C)C)C(=O)N[C@@H](CCC(=O)O)C(=O)N[C@@H](CCC(N)=O)C(=O)N[C@@H](CCC(=O)O)C(=O)N[C@@H](CCCCN)C(=O)N[C@@H](CCC(N)=O)C(=O)N[C@@H](CCCCN)C(=O)N[C@@H](CCC(=O)O)C(=O)N[C@@H](CCC(N)=O)C(=O)N[C@@H](CCCNC(=N)N)C(=O)N[C@@H](CCC(=O)O)C(=O)N[C@@H](CCC(N)=O)C(=O)N[C@@H](C)C(=O)N[C@@H](CCC(=O)O)C(=O)N[C@H](C(=O)N[C@@H](CC(N)=O)C(=O)NC(C)(C)C(=O)N[C@@H](CCC(N)=O)C(=O)N[C@H](C(=O)N[C@@H](CC(C)C)C(=O)N[C@@H](C)C(=O)N[C@@H](CCC(N)=O)C(=O)N[C@H](C(N)=O)C(C)C)[C@@H](C)CC)[C@@H](C)O)[C@@H](C)CC)[C@@H](C)CC)C(C)C)C(C)C
B3: SEQ ID NO 240 (peptide)
peptide: Ac-IVLSLD[dV]PIKLK([AEEA-AEEA-γGlu-C20 diacid])KILLEQEKQKAQREQAETN[Aib]QILAQV-NH2
SMILES: CC[C@H](C)[C@H](NC(C)=O)C(=O)N[C@H](C(=O)N[C@@H](CC(C)C)C(=O)N[C@@H](CO)C(=O)N[C@@H](CC(C)C)C(=O)N[C@@H](CC(=O)O)C(=O)N[C@@H](C(=O)N1CCC[C@H]1C(=O)N[C@H](C(=O)N[C@@H](CCCCN)C(=O)N[C@@H](CC(C)C)C(=O)N[C@@H](CCCCNC(=O)COCCOCCNC(=O)COCCOCCNC(=O)CC[C@H](NC(=O)CCCCCCCCCCCCCCCCCCC(=O)O)C(=O)O)C(=O)N[C@@H](CCCCN)C(=O)N[C@H](C(=O)N[C@@H](CC(C)C)C(=O)N[C@@H](CC(C)C)C(=O)N[C@@H](CCC(=O)O)C(=O)N[C@@H](CCC(N)=O)C(=O)N[C@@H](CCC(=O)O)C(=O)N[C@@H](CCCCN)C(=O)N[C@@H](CCC(N)=O)C(=O)N[C@@H](CCCCN)C(=O)N[C@@H](C)C(=O)N[C@@H](CCC(N)=O)C(=O)N[C@@H](CCCNC(=N)N)C(=O)N[C@@H](CCC(=O)O)C(=O)N[C@@H](CCC(N)=O)C(=O)N[C@@H](C)C(=O)N[C@@H](CCC(=O)O)C(=O)N[C@H](C(=O)N[C@@H](CC(N)=O)C(=O)NC(C)(C)C(=O)N[C@@H](CCC(N)=O)C(=O)N[C@H](C(=O)N[C@@H](CC(C)C)C(=O)N[C@@H](C)C(=O)N[C@@H](CCC(N)=O)C(=O)N[C@H](C(N)=O)C(C)C)[C@@H](C)CC)[C@@H](C)O)[C@@H](C)CC)[C@@H](C)CC)C(C)C)C(C)C
B4: SEQ ID NO 238 (peptide)
peptide: Ac-IVLSLD[dV]PIKLK([AEEA-AEEA-γGlu-C20 diacid])KILLEQEKQKKQREQAETN[Aib]QILAQV-NH2
SMILES: CC[C@H](C)[C@H](NC(C)=O)C(=O)N[C@H](C(=O)N[C@@H](CC(C)C)C(=O)N[C@@H](CO)C(=O)N[C@@H](CC(C)C)C(=O)N[C@@H](CC(=O)O)C(=O)N[C@@H](C(=O)N1CCC[C@H]1C(=O)N[C@H](C(=O)N[C@@H](CCCCN)C(=O)N[C@@H](CC(C)C)C(=O)N[C@@H](CCCCNC(=O)COCCOCCNC(=O)COCCOCCNC(=O)CC[C@H](NC(=O)CCCCCCCCCCCCCCCCCCC(=O)O)C(=O)O)C(=O)N[C@@H](CCCCN)C(=O)N[C@H](C(=O)N[C@@H](CC(C)C)C(=O)N[C@@H](CC(C)C)C(=O)N[C@@H](CCC(=O)O)C(=O)N[C@@H](CCC(N)=O)C(=O)N[C@@H](CCC(=O)O)C(=O)N[C@@H](CCCCN)C(=O)N[C@@H](CCC(N)=O)C(=O)N[C@@H](CCCCN)C(=O)N[C@@H](CCCCN)C(=O)N[C@@H](CCC(N)=O)C(=O)N[C@@H](CCCNC(=N)N)C(=O)N[C@@H](CCC(=O)O)C(=O)N[C@@H](CCC(N)=O)C(=O)N[C@@H](C)C(=O)N[C@@H](CCC(=O)O)C(=O)N[C@H](C(=O)N[C@@H](CC(N)=O)C(=O)NC(C)(C)C(=O)N[C@@H](CCC(N)=O)C(=O)N[C@H](C(=O)N[C@@H](CC(C)C)C(=O)N[C@@H](C)C(=O)N[C@@H](CCC(N)=O)C(=O)N[C@H](C(N)=O)C(C)C)[C@@H](C)CC)[C@@H](C)O)[C@@H](C)CC)[C@@H](C)CC)C(C)C)C(C)C

Target: human corticotropin-releasing factor 2a (CRF2a receptor) (human), Q13324
Sequence (Q13324 20-411): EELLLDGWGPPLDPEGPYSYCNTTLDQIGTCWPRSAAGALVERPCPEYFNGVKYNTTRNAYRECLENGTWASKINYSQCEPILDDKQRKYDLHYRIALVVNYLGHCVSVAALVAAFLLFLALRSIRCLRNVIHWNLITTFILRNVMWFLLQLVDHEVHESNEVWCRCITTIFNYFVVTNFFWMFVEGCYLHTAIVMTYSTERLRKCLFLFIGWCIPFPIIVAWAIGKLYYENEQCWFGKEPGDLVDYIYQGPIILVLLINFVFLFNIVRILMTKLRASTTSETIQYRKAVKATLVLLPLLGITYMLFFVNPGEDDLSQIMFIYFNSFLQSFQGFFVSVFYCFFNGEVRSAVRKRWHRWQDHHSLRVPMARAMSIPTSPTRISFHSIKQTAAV
Experiment: cell-based or functional assay

Binder	EC50 [nM] (cAMP)
B1	0.11
B2	0.41
B3	0.22
B4	0.11
